Laboratory results reported in patent publication US20080182249A1, “Expression systems for mammalian and mycobacterial desaturases” (priority 2006, published 2008).
“And” between values parts separate entries of the source, which are not always exact repeats. Identical values can stand only once.

T1: mSCD1 (Mus musculus, UniProt P13516)
T1 construct: 6xHis (from pYES-DEST52) (C); made in house; host or cells: mSCD1: Saccharomyces cerevisiae (OLE1-deficient strain L8-14C), used as microsomes; cyt b5 and cyt b5 reductase: Escherichia coli
T1 sequence (P13516 1-355): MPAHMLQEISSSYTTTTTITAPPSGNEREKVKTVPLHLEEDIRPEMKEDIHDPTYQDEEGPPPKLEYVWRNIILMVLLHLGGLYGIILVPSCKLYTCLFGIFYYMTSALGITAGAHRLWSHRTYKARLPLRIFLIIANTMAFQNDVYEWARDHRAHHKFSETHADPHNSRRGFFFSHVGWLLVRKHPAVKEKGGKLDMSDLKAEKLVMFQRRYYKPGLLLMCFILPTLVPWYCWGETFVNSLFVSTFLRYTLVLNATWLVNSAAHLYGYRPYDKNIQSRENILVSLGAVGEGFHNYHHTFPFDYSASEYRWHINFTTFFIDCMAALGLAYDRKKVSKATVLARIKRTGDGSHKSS

B1: mSCD4: mouse stearoyl-CoA desaturase isoform 4, cloned from heart, expressed in yeast (protein, UniProt Q6T707 1-353, looked up)
Stearoyl-CoA desaturase 4: MTAHLPQEISSRCSTTNIMEPHSRRQQDGEEKMPLQAEDIRPEIKDDLYDPSYQDEEGPPPKLEYVWRNIIFMALLHVGALYGITLVPSCKVYTWLLGVFYNVVAGLGITAGAHRLWSHRTYKARLPLRIFLIMANTMAFQNDVYEWARDHRAHHKFSETHADPHNSRRGFFFSHVGWLLVRKHPAVKEKGKNLDMSDLKAEKLVMFQRRYYKLAVTLMFIILPTLVPWYLWGETFQHSLCVSNFLRYAVLLNFTWLVNSAAHLYGYRPYDRGIGARENPFVSMASLGEGFHNYHHTFPYDYSVSEYRWHINFTTFFIDCMAALGLAYDRKKVSKAVVLARIKRTGDGSHKSS
B2: mSCD1 only: recombinant mSCD1 prepared as yeast microsomes, no exogenous cyt b5 or reductase (protein, UniProt P13516 1-355, looked up)
Acyl-CoA desaturase 1: T1 sequence (P13516 1-355)
modifications: yeast microsomes
notes: recombinant mSCD1 prepared as yeast microsomes, no exogenous cyt b5 or reductase
B3: hSCD5-wt: human SCD5 wild-type construct expressed in yeast L8-14C (protein, UniProt Q86SK9 1-330, looked up)
Stearoyl-CoA desaturase 5: MPGPATDAGKIPFCDAKEEIRAGLESSEGGGGPERPGARGQRQNIVWRNVVLMSLLHLGAVYSLVLIPKAKPLTLLWAYFCFLLAALGVTAGAHRLWSHRSYRAKLPLRIFLAVANSMAFQNDIFEWSRDHRAHHKYSETDADPHNARRGFFFSHIGWLFVRKHRDVIEKGRKLDVTDLLADPVVRIQRKYYKISVVLMCFVVPTLVPWYIWGESLWNSYFLASILRYTISLNISWLVNSAAHMYGNRPYDKHISPRQNPLVALGAIGEGFHNYHHTFPFDYSASEFGLNFNPTTWFIDFMCWLGLATDRKRATKPMIEARKARTGDSSA
B4: hSCD5-6xH: human SCD5 construct with 6xHis tag expressed in yeast L8-14C (protein, UniProt Q86SK9 1-330, looked up)
Stearoyl-CoA desaturase 5: B3 Stearoyl-CoA desaturase 5
modifications: C-terminal 6xHis tag
notes: human SCD5 construct with 6xHis tag expressed in yeast L8-14C
B5: hSCD1-wt: human SCD1 wild-type construct expressed in yeast L8-14C (protein, UniProt O00767 1-359, looked up)
Stearoyl-CoA desaturase: MPAHLLQDDISSSYTTTTTITAPPSRVLQNGGDKLETMPLYLEDDIRPDIKDDIYDPTYKDKEGPSPKVEYVWRNIILMSLLHLGALYGITLIPTCKFYTWLWGVFYYFVSALGITAGAHRLWSHRSYKARLPLRLFLIIANTMAFQNDVYEWARDHRAHHKFSETHADPHNSRRGFFFSHVGWLLVRKHPAVKEKGSTLDLSDLEAEKLVMFQRRYYKPGLLMMCFILPTLVPWYFWGETFQNSVFVATFLRYAVVLNATWLVNSAAHLFGYRPYDKNISPRENILVSLGAVGEGFHNYHHSFPYDYSASEYRWHINFTTFFIDCMAALGLAYDRKKVSKAAILARIKRTGDGNYKSG

Assays:
[1] = test system: OLE1 deficient yeast strain L8-14C; assay type: cell-based, Saccharomyces cerevisiae; conditions: galactose minimal medium without unsaturated fatty acids, plus grades not defined
mSCD1 = target: T1, mSCD1; assay: Conversion of [14C]-18:0-CoA to [14C]-18:1-CoA by reconstituted complexes of recombinant mSCD1 with cyt b5 and cyt b5 reductase; assay type: biochemical
transgenic L8-14C = assay: Fatty acid profile of transgenic L8-14C expressing human SCD constructs; assay type: cell-based, Saccharomyces cerevisiae; conditions: for 16:0 / 16:1 / 18:0 / 18:1: percentage of total C16 and C18 fatty acids detected

Row | Molecule | In vivo activity [1] | % conversion (mSCD1; 18:0-CoA to 18:1-CoA, single trial of duplicate) | Correction by subtraction of background (mSCD1; average conversion minus background) [%] | average conversion (mSCD1; mean of duplicate trials) [%] | cpm 18:1-CoA (mSCD1; single trial of duplicate) | total cpm (mSCD1; single trial of duplicate) | cpm 18:0-CoA (mSCD1; single trial of duplicate, mSCD1 yeast microsomes, cyt b5 and cyt b5 reductase from E. coli) | Ratio 18:1/16:1 (transgenic L8-14C) | 16:0 (transgenic L8-14C) [percentage] | 16:1 (transgenic L8-14C) [percentage] | 18:0 (transgenic L8-14C) [percentage] | 18:1 (transgenic L8-14C) [percentage]
1 | B1 | Not active |  |  |  |  |  |  |  |  |  |  | 
2 | B2 |  | 5.40% and 5.55% | 3.47 | 5.48 | 1626 cpm and 1743 cpm | 30,094 cpm and 31,416 cpm | 28,468 cpm and 29,673 cpm |  |  |  |  | 
3 | B3 |  |  |  |  |  |  |  | 3.39 | 45.032 | 8.90 | 7.73 | 30.20
4 | B4 |  |  |  |  |  |  |  | 3.73 | 56.64 | 6.70 | 10.79 | 25.70
5 | B5 |  |  |  |  |  |  |  | 0.63 | 61.87 | 23.22 | 9.40 | 14.65
